Assay results published in patent US20240041976A1, “COMPOSITION AND USE” (priority 2020, published 2024).

Tested on: clinical S. aureus strains from leprosy-associated skin ulcers (biofilms)
Assay: BOAT on clinical isolates
Format: cell-based, Staphylococcus aureus
Conditions: 14 clinical S. aureus isolates
Source text: Leprosy patients with plantar ulcers who were registered at LEPRA Society, BPHRC, Hyderabad, India during December 2018 through May 2019 (n=31) were enrolled into the study after obtaining an informed consent. The study protocol was approved by the Institutional Ethical Committee at LEPRA Society. A total of thirty-one wound swabs were collected using sterile pure viscose swab (Hi-media, Mumbai, India) and transported immediately for further processing to the microbiology laboratory. One swab was collected from each leprosy foot ulcer. Each swab was inoculated on Blood and McConkey agar and incubated at 37° C. overnight and the plates were examined for growth on the following day. Cultures were identified by colony morphology, Gram staining and other standard tests. […]
The BOAT assay was performed as described previously (Gronseth et al., 2017, Int. J. Pediatr. Otorhinolaryngol., Vol. 103, p 58-64) with some modifications. […] The results were then assessed by monitoring the development (or not) of red formazan (red colour), denoting the retention of metabolic activity by bacterial cells (Moussa et al., 2013, J. Mycol., Vol. 2013; Perez et al., 2010, Lett. Appl. Microbiol., Vol. 51, p 331-337). […] The amount of extracted dye, reflecting the degree of bacterial cell metabolic activity, was then quantified by spectrophotometric readings at 492 nm.

B1: Garvicin KS: three-peptide leaderless bacteriocin (GarA, GarB, GarC; SEQ ID NO:6-8), peptides synthesized (peptide, listed as Lactococcus garvieae)
chain 1: MGAIIKAGAKIVGKGVLGGGASWLGWNVGEKIWK
chain 2: MGAIIKAGAKIIGKGLLGGAAGGATYGGLKKIFG
chain 3: MGAIIKAGAKIVGKGALTGGGVWLAEKLFGGK
antimicrobial activity in BOAT on clinical isolates: showed antimicrobial activity against all the strains
